Results taken from patent publication US20250340595A1 (published 2025).
Like-named read-outs stand apart in the source and are kept apart here. Starred links: 1 amine or outer side, 2 acyl side, 3 side chain; linkers in the order of their positions; H or OH if unused. Positions of bridges follow the written chain, without caps; N, C: chain ends. Non-standard residues stand in square brackets, D forms with d. No end group written: not given here. Fluorescein = fluorescein label on the C-terminal Lys side chain; TATA = O=C(CC[*:1])N1CN(C(=O)CC[*:2])CN(C(=O)CC[*:3])C1; TATB = O=C(C[*:1])N1CN(C(=O)C[*:2])CN(C(=O)C[*:3])C1; Tle = CC(C)(C)[C@H](N)C(=O)O; Sar = CNCC(=O)O

Legend:
[1] = biological target: T1, Recombinant cynomolgus TfR1, His6-tagged (a.a. 89-760) (cynomolgus, UniProt H9EXL1 89-760 (rhesus entry)); assay: FP competition table (Table 6)
T1 construct: range 89-760; same product number named for FP and SPR; also called Cyno TfR1; Acro Biosystems TFR-C524a

[2] = biological target: T1, Recombinant cynomolgus TfR1, …; assay: SPR, TfR1 on chip
[3] = biological target: T1, Recombinant cynomolgus TfR1, …; assay: FP direct binding
[4] = biological target: T2, Recombinant human TfR1, His6-tagged (a.a. 89-760) (human, UniProt P02786 89-760); assay: SPR, TfR1 on chip
T2 construct: range 89-760; captured and coupled on an NTA chip for SPR; also called transferrin receptor 1; CD71

[5] = biological target: T3, Human TfR1 protein (R&D Systems, 2474-TR or Acro Biosystems, CD1-H5243) (human, UniProt P02786 89-760); assay: FP competition, competitor BCY15768
[6] = biological target: T1, Recombinant cynomolgus TfR1, …; assay: FP competition, competitor BCY15768
[7] = biological target: T3, Human TfR1 protein (R&D Systems, …); assay: FP competition, competitor BCY15768; remark: listed apart in the source
[8] = biological target: T3, Human TfR1 protein (R&D Systems, …); assay: Alpha assay, competition with labelled transferrin
[9] = biological target: T2, Recombinant human TfR1, His6-tagged …; assay: SPR, TfR1 on chip; remark: listed apart in the source
[10] = biological target: T1, Recombinant cynomolgus TfR1, …; assay: SPR, TfR1 on chip; remark: listed apart in the source

T2 sequence (P02786 89-760 limits assumed): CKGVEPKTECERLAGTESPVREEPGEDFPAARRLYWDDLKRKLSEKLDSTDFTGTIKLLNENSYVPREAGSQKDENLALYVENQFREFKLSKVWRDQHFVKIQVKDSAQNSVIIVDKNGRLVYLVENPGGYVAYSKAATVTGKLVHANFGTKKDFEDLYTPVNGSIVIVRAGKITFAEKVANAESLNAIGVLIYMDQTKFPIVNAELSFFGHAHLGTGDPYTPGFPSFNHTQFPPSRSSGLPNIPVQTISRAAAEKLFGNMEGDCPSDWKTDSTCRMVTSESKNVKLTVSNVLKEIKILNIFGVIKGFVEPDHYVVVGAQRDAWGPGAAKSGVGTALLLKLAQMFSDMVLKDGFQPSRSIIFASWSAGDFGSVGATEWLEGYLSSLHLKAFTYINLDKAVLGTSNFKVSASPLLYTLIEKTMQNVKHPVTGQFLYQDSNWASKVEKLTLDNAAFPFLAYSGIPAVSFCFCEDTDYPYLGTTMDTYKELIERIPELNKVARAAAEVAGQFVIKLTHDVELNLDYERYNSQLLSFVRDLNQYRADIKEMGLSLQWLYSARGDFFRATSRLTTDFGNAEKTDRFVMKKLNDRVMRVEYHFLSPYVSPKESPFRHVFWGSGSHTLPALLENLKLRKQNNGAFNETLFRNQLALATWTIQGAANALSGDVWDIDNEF
T3 sequence (P02786 89-760 limits assumed): as above
T1 sequence (chain, as listed by the source): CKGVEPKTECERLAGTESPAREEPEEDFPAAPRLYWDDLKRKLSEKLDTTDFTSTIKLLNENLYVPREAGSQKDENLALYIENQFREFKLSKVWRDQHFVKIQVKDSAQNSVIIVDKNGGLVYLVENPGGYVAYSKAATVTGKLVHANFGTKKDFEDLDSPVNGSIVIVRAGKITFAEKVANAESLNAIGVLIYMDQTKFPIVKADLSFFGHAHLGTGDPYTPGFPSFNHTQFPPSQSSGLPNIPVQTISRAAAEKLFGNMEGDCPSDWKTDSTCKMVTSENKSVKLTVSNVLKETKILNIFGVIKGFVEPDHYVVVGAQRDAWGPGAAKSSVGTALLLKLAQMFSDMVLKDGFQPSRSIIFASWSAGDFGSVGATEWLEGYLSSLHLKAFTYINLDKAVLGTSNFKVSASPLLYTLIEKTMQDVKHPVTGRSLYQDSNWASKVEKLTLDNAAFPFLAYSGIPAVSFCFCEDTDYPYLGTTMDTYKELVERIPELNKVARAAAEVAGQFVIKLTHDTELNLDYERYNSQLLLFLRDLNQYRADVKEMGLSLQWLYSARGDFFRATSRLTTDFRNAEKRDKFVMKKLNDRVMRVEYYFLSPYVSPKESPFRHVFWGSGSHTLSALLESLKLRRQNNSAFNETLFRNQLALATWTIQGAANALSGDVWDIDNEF

Work on ACSPDAHLGCISYCAXXXXXXK (3 Cys on TATB; [Sar6]; C-terminal Lys carries fluorescein) [BCY15768] yielded a Ki [1] of 1.07 µM, a Kd [2] of 3.8 µM and a Kd [3] of 0.707 µM.

In the case of ACAPDAHLGCISYCA[Sar][Sar][Sar][Sar][Sar][Sar]K(Fluorescein) (linker 2-10-14 via TATB) [BCY15769], the Ki [1] is reported as 1.12 µM, the Kd [4] is reported as 0.07 µM and the Kd [2] is reported as 2.2 µM.

For ACSPDAHLGCISACA[Sar][Sar][Sar][Sar][Sar][Sar]K(Fluorescein) (linker 2-10-14 via TATB) [BCY15770], the Ki [1] was 4.04 µM.

For ACSADAHLGCISYCA[Sar][Sar][Sar][Sar][Sar][Sar]K(Fluorescein) (linker 2-10-14 via TATB) [BCY15771], the Ki [1] was 1.06 µM and the Kd [2] was 4 µM.

With ACSPAAHLGCISYCA[Sar][Sar][Sar][Sar][Sar][Sar]K(Fluorescein) (linker 2-10-14 via TATB) [BCY15772] the Ki [1] was 7.08 µM and the Kd [2] was 99 µM.

Binder ACSPDAALGCISYCA[Sar][Sar][Sar][Sar][Sar][Sar]K(Fluorescein) (linker 2-10-14 via TATB) [BCY15773] has a Ki [1] of 2.3 µM and a Kd [2] of 2.6 µM.

In the case of ACSPDAHAGCISYCAXXXXXXK (3 Cys on TATB; [Sar6]; C-terminal Lys carries fluorescein) [BCY15774], the Ki [1] is reported as 3.47 µM and the Kd [2] is reported as 41 µM.

With ACSPDAHLGCIAYCA[Sar][Sar][Sar][Sar][Sar][Sar]K(Fluorescein) (linker 2-10-14 via TATB) [BCY15777] the Ki [1] was 2.91 µM.

With ACSPDAHLGC[Tle]SYCA (linker 2-10-14 via TATB) [BCY16051] the Kd [4] was 0.025 µM, the Kd [2] was 1.82 µM and the Ki [5] was 0.066 µM. It also gave a Ki [6] of 0.482 µM and a Ki [7] of 0.066 µM.

Work on ACALCNDWTLPWHHCA (3 Cys on TATA) [BCY12455] yielded an IC50 [8] of 0.673 µM, a Kd [9] of 65.6 µM and a Kd [10] of 42.4 µM.

B1: BCY12452 (peptide)
peptide: ACREFFDTCGLAFIECA-NH2
modifications: linker 2-9-16 via TATA; N-terminus assumed
SMILES: CC[C@H](C)[C@@H]1NC(=O)[C@H](Cc2ccccc2)NC(=O)[C@H](C)NC(=O)[C@H](CC(C)C)NC(=O)CNC(=O)[C@@H]2CSCCC(=O)N3CN(CN(C3)C(=O)CCSC[C@@H](C(=O)N[C@@H](C)C(N)=O)NC(=O)[C@H](CCC(=O)O)NC1=O)C(=O)CCSC[C@H](NC(=O)[C@H](C)N)C(=O)N[C@@H](CCCNC(=N)N)C(=O)N[C@@H](CCC(=O)O)C(=O)N[C@@H](Cc1ccccc1)C(=O)N[C@@H](Cc1ccccc1)C(=O)N[C@@H](CC(=O)O)C(=O)N[C@@H]([C@@H](C)O)C(=O)N2
With B1 the IC50 [8] was 1.22 µM.

ACLEACYDGVYWYSCA (3 Cys on TATA) [BCY12454] was tested, and the IC50 [8] was 0.893 µM.

For ACSADDWLGCISWCA (3 Cys on TATB) [BCY13983], the Kd [9] was 450 µM and the Kd [10] was 4580 µM.

With ACSADDWLGCISYCA (linker 2-10-14 via TATB) [BCY15471] the Kd [9] was 263 µM, the Kd [10] was 4660 µM and the Ki [5] was 0.434 µM. It also gave a Ki [6] of 4.66 µM and a Ki [7] of 0.434 µM.

For ACALCNDWTLPWHHCA[Sar][Sar][Sar][Sar][Sar][Sar]K(Fluorescein) (linker 2-5-15 via TATA) [BCY12652], the Kd [3] was 0.098 µM.

Work on ACSSDAYLGCISWCA (3 Cys on TATB) [BCY13986] yielded a Kd [9] of 132 µM and a Kd [10] of 2590 µM.

Work on ACPQDAYLGCISWCA (linker 2-10-14 via TATB) [BCY15467] yielded a Kd [9] of 29.5 µM, a Kd [10] of 1580 µM and a Ki [7] of 0.133 µM.

Binder ACSPDAHLGCISYCEHQE (linker 2-10-14 via TATB (inferred)) [BCY17119] has a Kd [4] of 0.212 µM, a Kd [2] of 5.65 µM and a Ki [5] of 0.16 µM. The Ki [7] was 0.16 µM.

With ACPPDSWQGCISYCA (linker 2-10-14 via TATB) [BCY13989] the Kd [2] was roughly 11 µM, the Kd [9] was 376 µM and the Kd [10] was 3440 µM. It also gave a Ki [5] of 0.565 µM, a Ki [6] of 3.44 µM and a Ki [7] of 0.565 µM.

For ACPPDAHLGCISYCA (3 Cys on TATB) [BCY16048], the Kd [2] was 1.28 µM and the Ki [6] was 0.621 µM.

With ACSSDAYLGCISWCA[Sar][Sar][Sar][Sar][Sar][Sar]K(Fluorescein) (linker 2-10-14 via TATB) [BCY14475] the Kd [3] was 2.62 µM.

ACPPDSWQGCISYCA[Sar][Sar][Sar][Sar][Sar][Sar]K(Fluorescein) (linker 2-10-14 via TATB) [BCY14476] gave a Kd [3] of 3.65 µM.
